Reference: US20250340643A1 (AstraZeneca / MedImmune, published 2025)
Like-named read-outs stand apart in the source and are kept apart here.

T1: CTLA4 on the cells of the reporter gene bioassay (human, UniProt P16410 36-223)
T1 sequence (looked up): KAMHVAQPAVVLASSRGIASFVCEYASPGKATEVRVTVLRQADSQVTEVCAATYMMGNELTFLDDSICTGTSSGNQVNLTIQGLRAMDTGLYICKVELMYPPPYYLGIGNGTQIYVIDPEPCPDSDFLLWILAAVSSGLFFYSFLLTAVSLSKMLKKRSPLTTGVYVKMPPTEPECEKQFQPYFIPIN


Legend:
[1] = biological target: T1, CTLA4 on the cells of the reporter gene …; experiment: cell-based or functional assay
[2] = biological target: T1, CTLA4 on the cells of the reporter gene …; experiment: cell-based or functional assay; remark: listed apart in the source
recombinant FcRn = biological target: T2, recombinant FcRn (UniProt P55899 24-297; P61769 21-119, limits assumed); experiment: SPR, recombinant FcRn immobilized on the sensor; relative to Reference Standard
T2 construct: also called Neonatal Fc Receptor
Excerpt: A surface plasmon resonance binding assay was used to measure FcRn binding. This method is based on the ability of the test sample to bind to recombinant FcRn that has been immobilized on an SPR sensor surface. A reference flow cell was created using the same standard amine coupling procedure without the addition of FcRn.

| Relative Potency (%) [1] | Relative Potency (%) [2] | Relative FcRn Binding (%) (recombinant FcRn) | Binder |
| --- | --- | --- | --- |
| 76% |  |  | Tremelimumab incubated in human serum at 37° C., week 4 (antibody, human IgG2, kappa, V domains shown, Asn-30 deamidated in 34.8% (peptide mapping)) VH: QVQLVESGGGVVQPGRSLRLSCAASGFTFSSYGMHWVRQAPGKGLEWVAVIWYDGSNKYYADSVKGRFTISRDNSKNTLYLQMNSLRAEDTAVYYCARDPRGATLYYYYYGMDVWGQGTTVTVSS VL: DIQMTQSPSSLSASVGDRVTITCRASQSINSYLDWYQQKPGKAPKLLIYAASSLQSGVPSRFSGSGSGTDFTLTISSLQPEDFATYYCQQYYSTPFTFGPGTKVEIKR |
| 80% |  |  | Tremelimumab incubated in human serum at 37° C., week 5 (antibody, human IgG2, kappa, V domains shown, Asn-30 deamidated in 37.7% (peptide mapping)) VH: QVQLVESGGGVVQPGRSLRLSCAASGFTFSSYGMHWVRQAPGKGLEWVAVIWYDGSNKYYADSVKGRFTISRDNSKNTLYLQMNSLRAEDTAVYYCARDPRGATLYYYYYGMDVWGQGTTVTVSS VL: DIQMTQSPSSLSASVGDRVTITCRASQSINSYLDWYQQKPGKAPKLLIYAASSLQSGVPSRFSGSGSGTDFTLTISSLQPEDFATYYCQQYYSTPFTFGPGTKVEIKR |
| 92% |  |  | Tremelimumab incubated in PBS at 37° C., week 0 (antibody, human IgG2, kappa, V domains shown, Asn-30 deamidated in 2.2% (peptide mapping)) VH: QVQLVESGGGVVQPGRSLRLSCAASGFTFSSYGMHWVRQAPGKGLEWVAVIWYDGSNKYYADSVKGRFTISRDNSKNTLYLQMNSLRAEDTAVYYCARDPRGATLYYYYYGMDVWGQGTTVTVSS VL: DIQMTQSPSSLSASVGDRVTITCRASQSINSYLDWYQQKPGKAPKLLIYAASSLQSGVPSRFSGSGSGTDFTLTISSLQPEDFATYYCQQYYSTPFTFGPGTKVEIKR |
| 83% |  |  | Tremelimumab incubated in PBS at 37° C., week 2 (antibody, human IgG2, kappa, V domains shown, Asn-30 deamidated in 18.5% (peptide mapping)) VH: QVQLVESGGGVVQPGRSLRLSCAASGFTFSSYGMHWVRQAPGKGLEWVAVIWYDGSNKYYADSVKGRFTISRDNSKNTLYLQMNSLRAEDTAVYYCARDPRGATLYYYYYGMDVWGQGTTVTVSS VL: DIQMTQSPSSLSASVGDRVTITCRASQSINSYLDWYQQKPGKAPKLLIYAASSLQSGVPSRFSGSGSGTDFTLTISSLQPEDFATYYCQQYYSTPFTFGPGTKVEIKR |
| 93% |  |  | Tremelimumab incubated in PBS at 37° C., week 3 (antibody, human IgG2, kappa, V domains shown, Asn-30 deamidated in 27.0% (peptide mapping)) VH: QVQLVESGGGVVQPGRSLRLSCAASGFTFSSYGMHWVRQAPGKGLEWVAVIWYDGSNKYYADSVKGRFTISRDNSKNTLYLQMNSLRAEDTAVYYCARDPRGATLYYYYYGMDVWGQGTTVTVSS VL: DIQMTQSPSSLSASVGDRVTITCRASQSINSYLDWYQQKPGKAPKLLIYAASSLQSGVPSRFSGSGSGTDFTLTISSLQPEDFATYYCQQYYSTPFTFGPGTKVEIKR |
| 96% |  |  | Tremelimumab incubated in PBS at 37° C., week 1 (antibody, human IgG2, kappa, V domains shown, Asn-30 deamidated in 8.8% (peptide mapping)) VH: QVQLVESGGGVVQPGRSLRLSCAASGFTFSSYGMHWVRQAPGKGLEWVAVIWYDGSNKYYADSVKGRFTISRDNSKNTLYLQMNSLRAEDTAVYYCARDPRGATLYYYYYGMDVWGQGTTVTVSS VL: DIQMTQSPSSLSASVGDRVTITCRASQSINSYLDWYQQKPGKAPKLLIYAASSLQSGVPSRFSGSGSGTDFTLTISSLQPEDFATYYCQQYYSTPFTFGPGTKVEIKR |
| 91% |  |  | Tremelimumab incubated in human serum at 37° C., week 2 (antibody, human IgG2, kappa, V domains shown, Asn-30 deamidated in 22.9% (peptide mapping)) VH: QVQLVESGGGVVQPGRSLRLSCAASGFTFSSYGMHWVRQAPGKGLEWVAVIWYDGSNKYYADSVKGRFTISRDNSKNTLYLQMNSLRAEDTAVYYCARDPRGATLYYYYYGMDVWGQGTTVTVSS VL: DIQMTQSPSSLSASVGDRVTITCRASQSINSYLDWYQQKPGKAPKLLIYAASSLQSGVPSRFSGSGSGTDFTLTISSLQPEDFATYYCQQYYSTPFTFGPGTKVEIKR |
| 76% |  |  | Tremelimumab incubated in PBS at 37° C., week 4 (antibody, human IgG2, kappa, V domains shown, Asn-30 deamidated in 37.7% (peptide mapping)) VH: QVQLVESGGGVVQPGRSLRLSCAASGFTFSSYGMHWVRQAPGKGLEWVAVIWYDGSNKYYADSVKGRFTISRDNSKNTLYLQMNSLRAEDTAVYYCARDPRGATLYYYYYGMDVWGQGTTVTVSS VL: DIQMTQSPSSLSASVGDRVTITCRASQSINSYLDWYQQKPGKAPKLLIYAASSLQSGVPSRFSGSGSGTDFTLTISSLQPEDFATYYCQQYYSTPFTFGPGTKVEIKR |
| 76% |  |  | Tremelimumab incubated in PBS at 37° C., week 5 (antibody, human IgG2, kappa, V domains shown, Asn-30 deamidated in 44.7% (peptide mapping)) VH: QVQLVESGGGVVQPGRSLRLSCAASGFTFSSYGMHWVRQAPGKGLEWVAVIWYDGSNKYYADSVKGRFTISRDNSKNTLYLQMNSLRAEDTAVYYCARDPRGATLYYYYYGMDVWGQGTTVTVSS VL: DIQMTQSPSSLSASVGDRVTITCRASQSINSYLDWYQQKPGKAPKLLIYAASSLQSGVPSRFSGSGSGTDFTLTISSLQPEDFATYYCQQYYSTPFTFGPGTKVEIKR |
| 106% |  |  | Tremelimumab incubated in human serum at 37° C., week 0 (antibody, human IgG2, kappa, V domains shown, Asn-30 deamidated in 3.4% (peptide mapping)) VH: QVQLVESGGGVVQPGRSLRLSCAASGFTFSSYGMHWVRQAPGKGLEWVAVIWYDGSNKYYADSVKGRFTISRDNSKNTLYLQMNSLRAEDTAVYYCARDPRGATLYYYYYGMDVWGQGTTVTVSS VL: DIQMTQSPSSLSASVGDRVTITCRASQSINSYLDWYQQKPGKAPKLLIYAASSLQSGVPSRFSGSGSGTDFTLTISSLQPEDFATYYCQQYYSTPFTFGPGTKVEIKR |
| 82% |  |  | Tremelimumab incubated in human serum at 37° C., week 3 (antibody, human IgG2, kappa, V domains shown, Asn-30 deamidated in 33.9% (peptide mapping)) VH: QVQLVESGGGVVQPGRSLRLSCAASGFTFSSYGMHWVRQAPGKGLEWVAVIWYDGSNKYYADSVKGRFTISRDNSKNTLYLQMNSLRAEDTAVYYCARDPRGATLYYYYYGMDVWGQGTTVTVSS VL: DIQMTQSPSSLSASVGDRVTITCRASQSINSYLDWYQQKPGKAPKLLIYAASSLQSGVPSRFSGSGSGTDFTLTISSLQPEDFATYYCQQYYSTPFTFGPGTKVEIKR |
| 98% |  |  | Tremelimumab incubated in human serum at 37° C., week 1 (antibody, human IgG2, kappa, V domains shown, Asn-30 deamidated in 11.1% (peptide mapping)) VH: QVQLVESGGGVVQPGRSLRLSCAASGFTFSSYGMHWVRQAPGKGLEWVAVIWYDGSNKYYADSVKGRFTISRDNSKNTLYLQMNSLRAEDTAVYYCARDPRGATLYYYYYGMDVWGQGTTVTVSS VL: DIQMTQSPSSLSASVGDRVTITCRASQSINSYLDWYQQKPGKAPKLLIYAASSLQSGVPSRFSGSGSGTDFTLTISSLQPEDFATYYCQQYYSTPFTFGPGTKVEIKR |
|  | 100% | 89% | Tremelimumab, chemical oxidation study (100 ppm H2O2), Control t = 0 (antibody, human IgG2, kappa, oxidation by peptide mapping: Met-256 1.2%, Met-362 0.9%, Met-401 1.4%, Met-432 0.2%) heavy: QVQLVESGGGVVQPGRSLRLSCAASGFTFSSYGMHWVRQAPGKGLEWVAVIWYDGSNKYYADSVKGRFTISRDNSKNTLYLQMNSLRAEDTAVYYCARDPRGATLYYYYYGMDVWGQGTTVTVSSASTKGPSVFPLAPCSRSTSESTAALGCLVKDYFPEPVTVSWNSGALTSGVHTFPAVLQSSGLYSLSSVVTVPSSNFGTQTYTCNVDHKPSNTKVDKTVERKCCVECPPCPAPPVAGPSVFLFPPKPKDTLMISRTPEVTCVVVDVSHEDPEVQFNWYVDGVEVHNAKTKPREEQFNSTFRVVSVLTVVHQDWLNGKEYKCKVSNKGLPAPIEKTISKTKGQPREPQVYTLPPSREEMTKNQVSLTCLVKGFYPSDIAVEWESNGQPENNYKTTPPMLDSDGSFFLYSKLTVDKSRWQQGNVFSCSVMHEALHNHYTQKSLSLSPGK light: not shown |
|  | 88% | 37% | Tremelimumab incubated with 100 ppm H2O2 for 2 days (antibody, human IgG2, kappa, oxidation by peptide mapping: Met-256 55.8%, Met-362 17.8%, Met-401 44.6%, Met-432 20.7%) heavy: QVQLVESGGGVVQPGRSLRLSCAASGFTFSSYGMHWVRQAPGKGLEWVAVIWYDGSNKYYADSVKGRFTISRDNSKNTLYLQMNSLRAEDTAVYYCARDPRGATLYYYYYGMDVWGQGTTVTVSSASTKGPSVFPLAPCSRSTSESTAALGCLVKDYFPEPVTVSWNSGALTSGVHTFPAVLQSSGLYSLSSVVTVPSSNFGTQTYTCNVDHKPSNTKVDKTVERKCCVECPPCPAPPVAGPSVFLFPPKPKDTLMISRTPEVTCVVVDVSHEDPEVQFNWYVDGVEVHNAKTKPREEQFNSTFRVVSVLTVVHQDWLNGKEYKCKVSNKGLPAPIEKTISKTKGQPREPQVYTLPPSREEMTKNQVSLTCLVKGFYPSDIAVEWESNGQPENNYKTTPPMLDSDGSFFLYSKLTVDKSRWQQGNVFSCSVMHEALHNHYTQKSLSLSPGK light: not shown |
|  | 88% | 93% | Tremelimumab incubated with 100 ppm H2O2 for 8 hours (antibody, human IgG2, kappa, oxidation by peptide mapping: Met-256 13.4%, Met-362 3.9%, Met-401 13.3%, Met-432 2.4%) heavy: QVQLVESGGGVVQPGRSLRLSCAASGFTFSSYGMHWVRQAPGKGLEWVAVIWYDGSNKYYADSVKGRFTISRDNSKNTLYLQMNSLRAEDTAVYYCARDPRGATLYYYYYGMDVWGQGTTVTVSSASTKGPSVFPLAPCSRSTSESTAALGCLVKDYFPEPVTVSWNSGALTSGVHTFPAVLQSSGLYSLSSVVTVPSSNFGTQTYTCNVDHKPSNTKVDKTVERKCCVECPPCPAPPVAGPSVFLFPPKPKDTLMISRTPEVTCVVVDVSHEDPEVQFNWYVDGVEVHNAKTKPREEQFNSTFRVVSVLTVVHQDWLNGKEYKCKVSNKGLPAPIEKTISKTKGQPREPQVYTLPPSREEMTKNQVSLTCLVKGFYPSDIAVEWESNGQPENNYKTTPPMLDSDGSFFLYSKLTVDKSRWQQGNVFSCSVMHEALHNHYTQKSLSLSPGK light: not shown |
|  | 83% | 91% | Tremelimumab incubated with 100 ppm H2O2 for 25 hours (antibody, human IgG2, kappa, oxidation by peptide mapping: Met-256 35.5%, Met-362 9.7%, Met-401 28.7%, Met-432 7.8%) heavy: QVQLVESGGGVVQPGRSLRLSCAASGFTFSSYGMHWVRQAPGKGLEWVAVIWYDGSNKYYADSVKGRFTISRDNSKNTLYLQMNSLRAEDTAVYYCARDPRGATLYYYYYGMDVWGQGTTVTVSSASTKGPSVFPLAPCSRSTSESTAALGCLVKDYFPEPVTVSWNSGALTSGVHTFPAVLQSSGLYSLSSVVTVPSSNFGTQTYTCNVDHKPSNTKVDKTVERKCCVECPPCPAPPVAGPSVFLFPPKPKDTLMISRTPEVTCVVVDVSHEDPEVQFNWYVDGVEVHNAKTKPREEQFNSTFRVVSVLTVVHQDWLNGKEYKCKVSNKGLPAPIEKTISKTKGQPREPQVYTLPPSREEMTKNQVSLTCLVKGFYPSDIAVEWESNGQPENNYKTTPPMLDSDGSFFLYSKLTVDKSRWQQGNVFSCSVMHEALHNHYTQKSLSLSPGK light: not shown |
